In article PMC11530851:

Target: SKIV2L (hSKI complex subunit);TTC37 (hSKI complex subunit);WDR61 (hSKI complex subunit) (human;human;human, UniProt Q15477;Q6PGP7;Q9GZS3 1-1246;1-1564;1-305, ||)
Assay: EMSA; 2 mM Mg2+; 25 mM Hepes-KOH pH 7.6, 2 mM Mg acetate, 50 mM NaCl, 1 mM DTT, 0.1 mg/ml BSA, 1 nM substrate, 37 C 30 min; 0.7% agarose gel at 4 C

B1: dsRNA (ss poly(A) + Css27) (dsRNA)
RNA 1: CCCCACCACCAUCACUUAAAAAAAAAA
RNA 2: UUUUUUUUUUAAGUGAUGGUGGUGGGG
B1: no binding.

B2: ss poly(A) DNA (ssDNA)
DNA: CCCCACCACCATCACTTAAAAAAAAAA
B2: binds.

B3: TEL18 (ssDNA)
DNA: GGTTAGGGTTAGGGTTAG
B3 gave a Kd of 12 nM.

B4: ss poly(A) (ssRNA)
RNA: CCCCACCACCAUCACUUAAAAAAAAAA
B4: binds.

B5: Non-TEL18 (ssDNA)
DNA: AGCGTATCCGTTCAGTTG
Work on B5 yielded a Kd of 30 nM.
